Results from PMC2648964, “Molecular Basis for the Sorting of the SNARE VAMP7 into Endocytic Clathrin-Coated Vesicles by the ArfGAP Hrb” (Cell, 2008).
Numbering of substitutions follows the chain as printed. Names and notes keep the numbering of the source. One block for each binder: values may come before it.

Key:
Assay in all cases: ITC; VAMP7 longin domain (1.4 ml, 0.15-0.2 mM) in the cell, Hrb at 1.5-2 mM titrated in 30-40 injections of 4-8 μl; all GST tags removed
Settings in all cases: both partners purified
[1] = target: T1, Hrb(1-176) His6 (human, UniProt P52594-1 1-176)
T1 construct: human Hrb, residues 1-176; also called residues 1–176 of Hrb; source: E. coli BL21(DE3)/pLysS, purified (Ni-NTA-agarose); not shown: His6, C-terminal, kept
T1 sequence (looked up): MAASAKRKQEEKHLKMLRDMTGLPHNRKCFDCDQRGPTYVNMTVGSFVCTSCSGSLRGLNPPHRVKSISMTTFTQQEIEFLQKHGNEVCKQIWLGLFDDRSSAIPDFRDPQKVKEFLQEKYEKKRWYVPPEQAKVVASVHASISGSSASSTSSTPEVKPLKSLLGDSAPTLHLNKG

[2] = target: T2, Hrb(1-176) His6 L171S/L173S (human, UniProt P52594-1 1-176, L171S | L173S)
T2 construct: human Hrb, residues 1-176, with L171S and L173S; source: E. coli BL21(DE3)/pLysS, purified (Ni-NTA-agarose); not shown: His6, C-terminal, kept
T2 sequence (looked up): T1 sequence (looked up) with L171S, L173S

[3] = target: T3, Hrb(1-176) His6 L163P/L164P (human, UniProt P52594-1 1-176, L163P | L164P)
T3 construct: human Hrb, residues 1-176, with L163P and L164P; source: E. coli BL21(DE3)/pLysS, purified (Ni-NTA-agarose); not shown: His6, C-terminal, kept
T3 sequence (looked up): T1 sequence (looked up) with L163P, L164P

[4] = target: T4, Hrb(1-176) His6 L160S/L163S (human, UniProt P52594-1 1-176, L160S | L163S)
T4 construct: human Hrb, residues 1-176, with L160S and L163S; source: E. coli BL21(DE3)/pLysS, purified (Ni-NTA-agarose); not shown: His6, C-terminal, kept
T4 sequence (looked up): T1 sequence (looked up) with L160S, L163S

- Kd [1]: > 300 µM
B1: VAMP7 longin domain L43S/Y45S, GST tag removed (domain or fragment, mouse, UniProt P70280 1-120, looked up)
chain: MAILFAVVARGTTILAKHAWCGGNFLEVTEQILAKIPSENNKSTSSHGNYLFHYICQDRIVYLCITDDDFERSRAFSFLNEVKKRFQTTYGSRAQTALPYAMNSEFSSVLAAQLKHHSEN
notes: VAMP7 longin domain with L43S and Y45S; limits as the parent GST-VAMP7 longin domain (mouse 1-120 by the antibody paragraph); Used in ITC; source: E. coli BL21(DE3)/pLysS, purified, GST removed with thrombin; not shown: GST, N-terminal, cleaved

- Kd [2]: > 300 µM
- Kd [1]: 10.5 µM
- Kd [3]: > 300 µM
- Kd [4]: > 300 µM
B2: VAMP7 longin domain, GST tag removed (domain or fragment, mouse, UniProt P70280 1-120, looked up)
chain: B1 chain with S43L, S45Y
notes: VAMP7 longin domain; GST-VAMP7 longin domain is described as mouse VAMP7 amino acids 1-120 in the antibody paragraph; also called VAMP7 LD; source: E. coli BL21(DE3)/pLysS, purified, GST removed with thrombin; not shown: GST, N-terminal, cleaved
